According to US20190276496A1 (FUNDACI N PARA LA INVESTIGACI N M DICA APLICADA, published 2019):
Where no end group is shown, it is not given here. [ ]: non-standard residue; d: D form.

T1: Foxp3 in murine CD25+ Treg cells (mouse, UniProt Q99JB6 1-417)
T1 sequence (looked up): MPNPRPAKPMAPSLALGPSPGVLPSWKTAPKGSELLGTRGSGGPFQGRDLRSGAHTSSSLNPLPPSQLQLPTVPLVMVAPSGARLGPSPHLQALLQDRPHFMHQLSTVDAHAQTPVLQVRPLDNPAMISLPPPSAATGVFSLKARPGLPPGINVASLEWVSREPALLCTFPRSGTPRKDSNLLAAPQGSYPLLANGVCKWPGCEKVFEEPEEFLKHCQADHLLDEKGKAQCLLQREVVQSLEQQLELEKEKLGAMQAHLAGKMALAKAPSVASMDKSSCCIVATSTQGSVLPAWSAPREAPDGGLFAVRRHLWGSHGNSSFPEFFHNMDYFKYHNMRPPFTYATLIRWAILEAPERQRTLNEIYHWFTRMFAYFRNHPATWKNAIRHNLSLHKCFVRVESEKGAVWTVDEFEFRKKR

B1: peptide of SEQ ID NO: 4 (peptide)
peptide: Ac-GR[dD]FQSFRKMWPFFAM-NH2
SMILES: CSCC[C@H](NC(=O)[C@H](C)NC(=O)[C@H](Cc1ccccc1)NC(=O)[C@H](Cc1ccccc1)NC(=O)[C@@H]1CCCN1C(=O)[C@H](Cc1c[nH]c2ccccc12)NC(=O)[C@H](CCSC)NC(=O)[C@H](CCCCN)NC(=O)[C@H](CCCNC(=N)N)NC(=O)[C@H](Cc1ccccc1)NC(=O)[C@H](CO)NC(=O)[C@H](CCC(N)=O)NC(=O)[C@H](Cc1ccccc1)NC(=O)[C@@H](CC(=O)O)NC(=O)[C@H](CCCNC(=N)N)NC(=O)CNC(C)=O)C(N)=O
B2: peptide of SEQ ID NO: 47 (peptide)
peptide: RAFQSFRKMWPFFA[dM]
B3: peptide of SEQ ID NO: 5 (peptide)
peptide: RAFQSFRKMWPFFAM
B4: peptide of SEQ ID NO: 15 (peptide)
peptide: RDAQSFRKMWPFFAM
B5: p60 (peptide of SEQ ID NO: 1) (peptide)
peptide: RDFQSFRKMWPFFAM
B6: peptide of SEQ ID NO: 19 (peptide)
peptide: RDFQAFRKMWPFFAM
B7: peptide of SEQ ID NO: 45 (peptide)
peptide: Ac-GRAFQAFRKMWAFFAM-NH2
B8: peptide of SEQ ID NO: 30 (peptide)
peptide: RDFQSFRKMWAFFAM
B9: cyclic peptide SEQ ID NO: 50 (peptide)
peptide: RAFQAFRKMWPFFAM
modifications: head-to-tail cyclic: linker L is C(=O) between the N-terminal amino group of residue 1 and the alpha carbon of residue 15
B10: peptide of SEQ ID NO: 2 (peptide)
peptide: Ac-GRDFQSFRKMWPFFAM-NH2
B11: peptide of SEQ ID NO: 48 (peptide)
peptide: [dR]AFQSFRKMWPFFA[dM]
B12: peptide of SEQ ID NO: 14 (peptide)
peptide: Ac-GR[dA]FQSFRKMWPFFAM-NH2
SMILES: CSCC[C@H](NC(=O)[C@H](C)NC(=O)[C@H](Cc1ccccc1)NC(=O)[C@H](Cc1ccccc1)NC(=O)[C@@H]1CCCN1C(=O)[C@H](Cc1c[nH]c2ccccc12)NC(=O)[C@H](CCSC)NC(=O)[C@H](CCCCN)NC(=O)[C@H](CCCNC(=N)N)NC(=O)[C@H](Cc1ccccc1)NC(=O)[C@H](CO)NC(=O)[C@H](CCC(N)=O)NC(=O)[C@H](Cc1ccccc1)NC(=O)[C@@H](C)NC(=O)[C@H](CCCNC(=N)N)NC(=O)CNC(C)=O)C(N)=O
B13: peptide of SEQ ID NO: 46 (peptide)
peptide: H-[dR]AFQSFRKMWPFFAM-OH
SMILES: CSCC[C@H](NC(=O)[C@H](C)NC(=O)[C@H](Cc1ccccc1)NC(=O)[C@H](Cc1ccccc1)NC(=O)[C@@H]1CCCN1C(=O)[C@H](Cc1c[nH]c2ccccc12)NC(=O)[C@H](CCSC)NC(=O)[C@H](CCCCN)NC(=O)[C@H](CCCNC(=N)N)NC(=O)[C@H](Cc1ccccc1)NC(=O)[C@H](CO)NC(=O)[C@H](CCC(N)=O)NC(=O)[C@H](Cc1ccccc1)NC(=O)[C@H](C)NC(=O)[C@H](N)CCCNC(=N)N)C(=O)O

Experiments:
[1] = molecular target: T1, Foxp3 in murine CD25+ Treg cells; test: cell-based or functional assay
[2] = molecular target: human FOXP3 tagged with 6 histidines at the C terminus (human) (UniProt Q9BZS1); test: SPR (ProteOn XPR36), FOXP3-6His immobilized on GLM chip, peptide 1-20 µM injected; ratio to p60 (SEQ ID NO: 1)
Chain of human FOXP3 tagged with 6 histidines at the C terminus (human) (Q9BZS1 other isoform, or with tags, fused parts or gaps): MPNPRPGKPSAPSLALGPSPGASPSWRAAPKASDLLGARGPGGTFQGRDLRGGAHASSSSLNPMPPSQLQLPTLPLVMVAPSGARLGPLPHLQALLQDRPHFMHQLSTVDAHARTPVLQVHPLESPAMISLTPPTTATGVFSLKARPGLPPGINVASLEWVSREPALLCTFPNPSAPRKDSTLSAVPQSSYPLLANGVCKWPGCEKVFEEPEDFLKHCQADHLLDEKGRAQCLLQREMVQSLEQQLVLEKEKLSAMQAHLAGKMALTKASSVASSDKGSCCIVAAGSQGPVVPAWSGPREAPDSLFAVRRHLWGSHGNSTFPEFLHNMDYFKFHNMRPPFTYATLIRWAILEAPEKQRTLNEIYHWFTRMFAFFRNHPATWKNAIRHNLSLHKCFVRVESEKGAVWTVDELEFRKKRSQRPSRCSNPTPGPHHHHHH

[3] = molecular target: GST-FOXP3 (GST fused to the isoform A from human FOXP3 gene) (human) [GST: P08515]; test: AlphaScreen competition, GST-FOXP3 (100 nM) / His-Runx1 (46 nM, competitor); peptide at 2.5 µM
Chain of GST-FOXP3 (GST fused to the isoform A from human FOXP3 gene) (human) [GST: P08515] (P08515 1-218, tags or fused parts left off): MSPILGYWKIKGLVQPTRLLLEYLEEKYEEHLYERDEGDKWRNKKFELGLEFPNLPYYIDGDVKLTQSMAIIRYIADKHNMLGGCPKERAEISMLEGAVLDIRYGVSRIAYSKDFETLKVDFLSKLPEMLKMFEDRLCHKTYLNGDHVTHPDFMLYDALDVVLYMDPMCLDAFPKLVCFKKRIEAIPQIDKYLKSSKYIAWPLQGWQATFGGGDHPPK

[4] = molecular target: T1, Foxp3 in murine CD25+ Treg cells; test: cell-based or functional assay; remark: listed apart in the source
[5] = molecular target: GST-FOXP3 (GST fused to the isoform A from human FOXP3 gene) (human) [GST: P08515]; test: AlphaScreen competition, GST-FOXP3 (100 nM) / His-Runx1 (46 nM, competitor); peptide at 100 µM
[6] = molecular target: human FOXP3 tagged with 6 histidines at the C terminus (human) (UniProt Q9BZS1); test: AlphaScreen competition, His-tagged FOXP3 (400 nM) / GST-tagged FOXP3 (40 nM, competitor); peptide at 100 µM
[7] = molecular target: human FOXP3 tagged with 6 histidines at the C terminus (human) (UniProt Q9BZS1); test: AlphaScreen competition, His-tagged FOXP3 (400 nM) / GST-tagged FOXP3 (40 nM, competitor); peptide at 20 µM

| Binder | IC50 (µM) of inhibition of Treg activity, in vitro Treg suppression assay (murine Tconv + Treg, anti-CD3, [3H]-thymidine) [1] [µM] | Ratio binding Peptide/p60 (fold change) [2] [fold change] | Foxp3-Runx1 Inhibition % inhibition [3] [%] | Treg inhibition-% inhibition (100 µM) [4] [%] | Foxp3-Runx1 Inhibition % inhibition [5] [%] | Dimerization inhibition % inhibition [6] [%] | Dimerization inhibition % inhibition [7] [%] |
| --- | --- | --- | --- | --- | --- | --- | --- |
| B1 | 13.4 | 4.2 |  |  |  |  |  |
| B2 | 35 | 1.7 | 75 |  |  |  |  |
| B3 |  | 4.1 |  | 347 | 76 | 74.3 |  |
| B4 |  | 1.1 |  |  | 55.6 |  |  |
| B5 | 38.3 | 1 |  | 116 | 54.5 | 59.7 |  |
| B6 |  | 1.1 |  | 160 | 74.7 | 89 |  |
| B7 | 3 | 8 |  |  |  |  |  |
| B8 |  | 1.1 |  | 170 | 73.9 | 81.3 |  |
| B9 | 0.8 | 21.4 | 60 |  |  |  |  |
| B10 |  | 2.4 |  |  |  |  | 80 |
| B11 | 20 | 2.5 | 70 |  |  |  |  |
| B12 | 12.5 | 3.6 | 80 |  |  |  | 90 |
| B13 | 12.5 | 2.7 | 95 |  |  |  | 90 |
